The source of these data is IntAct's records for PubMed 15156152.

To fix the notation:
B1: Integrin beta-5 (Homo sapiens), P18084 (parent)
chain: MPRAPAPLYACLLGLCALLPRLAGLNICTSGSATSCEECLLIHPKCAWCSKEDFGSPRSITSRCDLRANLVKNGCGGEIESPASSFHVLRSLPLSSKGSGSAGWDVIQMTPQEIAVNLRPGDKTTFQLQVRQVEDYPVDLYYLMDLSLSMKDDLDNIRSLGTKLAEEMRKLTSNFRLGFGSFVDKDISPFSYTAPRYQTNPCIGYKLFPNCVPSFGFRHLLPLTDRVDSFNEEVRKQRVSRNRDAPEGGFDAVLQAAVCKEKIGWRKDALHLLVFTTDDVPHIALDGKLGGLVQPHDGQCHLNEANEYTASNQMDYPSLALLGEKLAENNINLIFAVTKNHYMLYKNFTALIPGTTVEILDGDSKNIIQLIINAYNSIRSKVELSVWDQPEDLNLFFTATCQDGVSYPGQRKCEGLKIGDTASFEVSLEARSCPSRHTEHVFALRPVGFRDSLEVGVTYNCTCGCSVGLEPNSARCNGSGTYVCGLCECSPGYLGTRCECQDGENQSVYQNLCREAEGKPLCSGRGDCSCNQCSCFESEFGKIYGPFCECDNFSCARNKGVLCSGHGECHCGECKCHAGYIGDNCNCSTDISTCRGRDGQICSERGHCLCGQCQCTEPGAFGEMCEKCPTCPDACSTKRDCVECLLLHSGKPDNQTCHSLCRDEVITWVDTIVKDDQEAVLCFYKTAKDCVMMFTYVELPSGKSNLTVLREPECGNTPNAMTILLAVVGSILLVGLALLAIWKLLVTIHDRREFAKFQSERSRARYEMASNPLYRKPISTHTVDFTFNKFNKSYNGTVD

One test covers variants of B1. Conditions: with myo10_mouse Myo10, F8VQB6.
Sequence of myo10_mouse Myo10, F8VQB6 (F8VQB6 whole entry): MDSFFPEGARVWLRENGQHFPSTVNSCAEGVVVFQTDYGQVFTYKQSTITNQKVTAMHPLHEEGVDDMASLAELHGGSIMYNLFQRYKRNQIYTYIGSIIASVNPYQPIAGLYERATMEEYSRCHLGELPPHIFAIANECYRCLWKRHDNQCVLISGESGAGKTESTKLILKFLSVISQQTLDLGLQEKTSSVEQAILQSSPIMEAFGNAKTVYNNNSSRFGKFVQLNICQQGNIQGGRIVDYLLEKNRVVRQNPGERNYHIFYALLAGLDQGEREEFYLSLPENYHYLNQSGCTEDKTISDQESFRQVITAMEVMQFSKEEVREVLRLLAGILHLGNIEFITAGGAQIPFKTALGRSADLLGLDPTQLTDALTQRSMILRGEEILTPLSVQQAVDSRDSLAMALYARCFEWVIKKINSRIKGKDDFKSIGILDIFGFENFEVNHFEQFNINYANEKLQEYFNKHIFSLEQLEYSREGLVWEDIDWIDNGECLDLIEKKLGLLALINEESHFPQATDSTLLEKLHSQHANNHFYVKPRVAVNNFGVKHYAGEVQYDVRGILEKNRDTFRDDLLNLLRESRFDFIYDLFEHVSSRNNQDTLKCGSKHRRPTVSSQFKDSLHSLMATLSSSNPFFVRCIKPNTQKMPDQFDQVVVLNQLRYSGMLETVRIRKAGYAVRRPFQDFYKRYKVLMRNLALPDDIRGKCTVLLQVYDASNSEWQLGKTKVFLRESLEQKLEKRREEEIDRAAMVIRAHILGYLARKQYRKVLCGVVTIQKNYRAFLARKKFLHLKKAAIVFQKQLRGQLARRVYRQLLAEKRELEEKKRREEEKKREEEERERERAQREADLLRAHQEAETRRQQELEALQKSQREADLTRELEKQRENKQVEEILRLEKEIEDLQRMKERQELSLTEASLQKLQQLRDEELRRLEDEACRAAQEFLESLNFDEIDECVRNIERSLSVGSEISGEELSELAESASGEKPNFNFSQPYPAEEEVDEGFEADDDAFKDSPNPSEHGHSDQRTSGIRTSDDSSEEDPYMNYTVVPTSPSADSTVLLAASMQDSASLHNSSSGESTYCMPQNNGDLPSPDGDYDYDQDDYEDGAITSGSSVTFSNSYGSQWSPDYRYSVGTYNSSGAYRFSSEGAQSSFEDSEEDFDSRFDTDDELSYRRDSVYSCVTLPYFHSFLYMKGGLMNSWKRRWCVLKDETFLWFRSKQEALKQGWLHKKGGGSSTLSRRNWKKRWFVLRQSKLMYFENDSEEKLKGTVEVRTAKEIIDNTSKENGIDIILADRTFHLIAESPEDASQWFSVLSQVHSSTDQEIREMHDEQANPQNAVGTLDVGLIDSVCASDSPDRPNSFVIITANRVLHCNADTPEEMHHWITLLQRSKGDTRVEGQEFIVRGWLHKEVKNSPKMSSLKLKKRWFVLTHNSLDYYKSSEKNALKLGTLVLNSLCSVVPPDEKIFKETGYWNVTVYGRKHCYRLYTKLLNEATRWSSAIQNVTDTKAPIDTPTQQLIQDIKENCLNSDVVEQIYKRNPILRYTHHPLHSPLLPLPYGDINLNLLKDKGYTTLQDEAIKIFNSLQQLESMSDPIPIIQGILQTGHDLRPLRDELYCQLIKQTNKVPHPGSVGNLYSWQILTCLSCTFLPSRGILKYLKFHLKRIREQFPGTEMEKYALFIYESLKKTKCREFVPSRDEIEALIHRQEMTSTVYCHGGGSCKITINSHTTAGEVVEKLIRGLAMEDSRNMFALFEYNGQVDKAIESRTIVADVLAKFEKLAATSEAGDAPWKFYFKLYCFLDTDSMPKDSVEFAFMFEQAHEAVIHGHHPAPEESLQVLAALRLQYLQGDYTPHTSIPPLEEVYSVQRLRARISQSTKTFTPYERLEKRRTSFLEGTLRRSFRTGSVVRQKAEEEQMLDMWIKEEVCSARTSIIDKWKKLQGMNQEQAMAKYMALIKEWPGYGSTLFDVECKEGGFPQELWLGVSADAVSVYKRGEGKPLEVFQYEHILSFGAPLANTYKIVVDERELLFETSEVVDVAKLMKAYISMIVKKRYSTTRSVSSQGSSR
On to P772A, for which the “effect of a mutation on the interaction” value is recorded as “disrupting interaction”.
Same read-out and setting: under Y774A stands “disrupting interaction”; under L773A, “decreasing interaction”.

Variants of B1 are the subject of a further test. Conditions: with myo10_bovin MYO10, P79114.
Sequence of myo10_bovin MYO10, P79114 (P79114 whole entry): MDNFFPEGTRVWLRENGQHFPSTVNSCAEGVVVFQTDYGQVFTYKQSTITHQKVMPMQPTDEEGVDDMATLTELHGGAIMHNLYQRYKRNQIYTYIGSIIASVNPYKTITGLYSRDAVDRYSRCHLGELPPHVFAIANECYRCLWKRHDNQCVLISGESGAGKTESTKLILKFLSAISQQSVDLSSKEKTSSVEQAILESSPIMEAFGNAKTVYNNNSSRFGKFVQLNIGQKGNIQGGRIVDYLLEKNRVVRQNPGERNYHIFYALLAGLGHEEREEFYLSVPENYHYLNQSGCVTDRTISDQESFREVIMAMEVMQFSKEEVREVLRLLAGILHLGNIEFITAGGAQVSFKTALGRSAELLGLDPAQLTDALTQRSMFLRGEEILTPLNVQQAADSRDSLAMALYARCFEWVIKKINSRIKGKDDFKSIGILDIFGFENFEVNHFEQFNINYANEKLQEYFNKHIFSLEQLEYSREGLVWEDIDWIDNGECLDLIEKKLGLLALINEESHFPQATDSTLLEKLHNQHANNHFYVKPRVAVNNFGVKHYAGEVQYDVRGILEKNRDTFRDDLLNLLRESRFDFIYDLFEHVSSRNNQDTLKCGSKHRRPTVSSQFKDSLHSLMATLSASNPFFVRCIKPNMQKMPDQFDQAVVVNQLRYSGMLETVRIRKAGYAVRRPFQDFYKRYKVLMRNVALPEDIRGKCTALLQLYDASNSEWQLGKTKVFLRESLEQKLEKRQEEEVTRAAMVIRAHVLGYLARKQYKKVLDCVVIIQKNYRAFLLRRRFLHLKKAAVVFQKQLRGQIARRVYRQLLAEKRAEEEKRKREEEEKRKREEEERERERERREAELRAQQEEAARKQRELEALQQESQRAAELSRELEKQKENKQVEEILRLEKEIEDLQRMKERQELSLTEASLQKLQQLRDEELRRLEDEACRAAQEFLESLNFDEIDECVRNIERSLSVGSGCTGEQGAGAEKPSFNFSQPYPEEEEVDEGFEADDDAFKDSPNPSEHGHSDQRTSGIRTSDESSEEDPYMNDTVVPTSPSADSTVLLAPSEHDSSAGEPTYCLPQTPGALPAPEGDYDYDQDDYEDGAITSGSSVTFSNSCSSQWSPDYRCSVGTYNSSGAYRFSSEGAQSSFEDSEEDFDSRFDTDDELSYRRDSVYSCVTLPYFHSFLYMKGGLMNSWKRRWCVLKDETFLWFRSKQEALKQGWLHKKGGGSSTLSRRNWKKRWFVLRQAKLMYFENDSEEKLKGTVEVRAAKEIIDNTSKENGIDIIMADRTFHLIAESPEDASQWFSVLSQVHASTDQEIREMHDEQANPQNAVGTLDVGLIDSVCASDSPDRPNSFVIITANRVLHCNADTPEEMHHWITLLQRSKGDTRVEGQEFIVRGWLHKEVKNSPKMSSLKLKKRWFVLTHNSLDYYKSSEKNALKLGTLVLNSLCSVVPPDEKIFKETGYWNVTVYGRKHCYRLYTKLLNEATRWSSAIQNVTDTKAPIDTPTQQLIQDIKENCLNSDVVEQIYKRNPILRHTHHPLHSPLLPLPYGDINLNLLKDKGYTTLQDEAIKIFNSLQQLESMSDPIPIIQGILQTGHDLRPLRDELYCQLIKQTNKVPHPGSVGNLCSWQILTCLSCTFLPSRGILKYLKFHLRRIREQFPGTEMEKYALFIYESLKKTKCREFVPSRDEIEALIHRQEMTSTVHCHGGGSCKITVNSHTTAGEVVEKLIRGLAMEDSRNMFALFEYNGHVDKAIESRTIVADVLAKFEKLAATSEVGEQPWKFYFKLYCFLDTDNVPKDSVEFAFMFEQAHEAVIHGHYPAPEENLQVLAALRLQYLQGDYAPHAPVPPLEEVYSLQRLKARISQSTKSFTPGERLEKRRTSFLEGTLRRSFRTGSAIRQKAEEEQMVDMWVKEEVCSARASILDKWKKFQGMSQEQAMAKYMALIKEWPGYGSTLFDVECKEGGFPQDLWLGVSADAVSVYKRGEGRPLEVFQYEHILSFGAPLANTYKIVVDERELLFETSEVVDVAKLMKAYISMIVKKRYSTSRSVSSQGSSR
Consider P772A, for which the “effect of a mutation on the interaction” value is “disrupting interaction”.
